What was measured:
Assay in all cases: cell-based or functional assay
Recombinant Human β-NGF = Recombinant Human β-NGF (human, UniProt P01138 122-241)
[1] = target: Recombinant Human TNF-α/TNFSF1A (human, UniProt P01375 77-233)
Recombinant Human IL-13 = Recombinant Human IL-13 (human, UniProt P35225 35-146, limits assumed)
Recombinant Human IL-13, sequence (P35225 35-146 limits assumed): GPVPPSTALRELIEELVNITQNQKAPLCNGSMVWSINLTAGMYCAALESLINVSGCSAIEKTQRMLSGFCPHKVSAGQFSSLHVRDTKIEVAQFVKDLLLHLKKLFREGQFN

Recombinant Human β-NGF, sequence (P01138 122-241 limits assumed): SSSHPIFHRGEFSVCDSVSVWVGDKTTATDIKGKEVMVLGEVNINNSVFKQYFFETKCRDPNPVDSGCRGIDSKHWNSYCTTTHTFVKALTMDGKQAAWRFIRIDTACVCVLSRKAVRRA
Recombinant Human TNF-α/TNFSF1A, sequence (P01375 77-233 limits assumed): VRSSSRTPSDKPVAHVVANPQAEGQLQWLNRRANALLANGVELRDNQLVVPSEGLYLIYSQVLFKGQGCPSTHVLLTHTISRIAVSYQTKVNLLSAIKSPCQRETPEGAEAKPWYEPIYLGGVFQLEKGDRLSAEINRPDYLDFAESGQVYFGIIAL

Binder | IL-13 Neutralization Assay IC50 (Recombinant Human IL-13) | other results
AB267 (antibody, V domains shown) VH: EVQLVESGGGLVQPGGSLRLSCAASGFSLTNNNVNWVRQAPGKGLEWVGGVWAGGATDYNSALKSRFTISRDNSKNTAYLQMNSLRAEDTAVYYCARDGGYSSSTLYAMDAWGQGTLVTVSS VL: DIQMTQSPSSLSASVGDRVTITCRASEDIYNALAWYQQKPGKAPKLLIYNTDTLHTGVPSRFSGSGSGTDYTLTISSLQPEDFATYFCQHYFHYPRTFGQGTKVEIKR | – | NGF Neutralization Assay IC50 (Recombinant Human β-NGF): 0.007 nM
DVD2713 (bispecific antibody, IgG1) VH: EVQLVESGGGLVQPGGSLRLSCAASGFTFSNYGVTWVRQAPGKGLEWVSMIWADGSTHYASSVKGRFTISRDNSKNTLYLQMNSLRAEDTAVYYCAREWQHGPVAYWGQGTLVTVSSGGGGSGGGGSEVQLVESGGGLVQPGGSLRLSCAASGFSLTNNNVNWVRQAPGKGLEWVGGVWAGGATDYNSALKSRFTISRDNSKNTAYLQMNSLRAEDTAVYYCARDGGYSSSTLYAMDAWGQGTLVTVSS VL: DIQMTQSPSSLSASVGDRVTITCRASQLVSSAVAWYQQKPGKAPKLLIYWASARHTGVPSRFSGSGSGTDFTLTISSLQPEDFATYYCQQHYKTPFTFGQGTKLEIKRGGSGGGGSGDIQMTQSPSSLSASVGDRVTITCRASEDIYNALAWYQQKPGKAPKLLIYNTDTLHTGVPSRFSGSGSGTDYTLTISSLQPEDFATYFCQHYFHYPRTFGQGTKVEIKR | – | N-Terminal VD huTNFα Neutralization Assay IC50 [1]: 0.006 nM; C-Terminal VD NGF Neutralization Assay IC50 (Recombinant Human β-NGF): 2.9 nM
DVD3119 (bispecific antibody, human IgG1, kappa) heavy: not shown light: DVVMTQSPLSLPVTLGQPASISCRSSQSLVHSHGNTYLHWYQQRPGQSPRLLIYTVSNRFSGVPDRFSGSGSGTDFTLKISRVEAEDVGVYYCSQSTHVPYTFGGGTKVEIKRTVAAPDIQMTQSPSSLSASVGDRVTITCRASQDIENYLNWYQQKPGKAPKLLIYYTSRLQSGVPSRFSGSGSGTDFTLTISSLQPEDFATYFCQQGNTQPPTFGQGTKLEIKRTVAAPSVFIFPPSDEQLKSGTASVVCLLNNFYPREAKVQWKVDNALQSGNSQESVTEQDSKDSTYSLSSTLTLSKADYEKHKVYACEVTHQGLSSPVTKSFNRGEC | 0.051 nM | –
DVD3122 (bispecific antibody, human IgG1, kappa) heavy: not shown light: DVVMTQSPLSLPVTLGQPASISCRSSQSLVHSHGNTYLHWYQQRPGQSPRLLIYTVSNRFSGVPDRFSGSGSGTDFTLKISRVEAEDVGVYYCSQSTHVPYTFGGGTKVEIKRTVAAPDIQMTQSPSSLSASVGDRVTITCRASQDIENYLNWYQQKPGKAPKLLIYYTSRLQSGVPSRFSGSGSGTDFTLTISSLQPEDFATYFCQQGNTQPPTFGQGTKLEIKRTVAAPSVFIFPPSDEQLKSGTASVVCLLNNFYPREAKVQWKVDNALQSGNSQESVTEQDSKDSTYSLSSTLTLSKADYEKHKVYACEVTHQGLSSPVTKSFNRGEC | 0.011 nM | –
DVD2714 (bispecific antibody, IgG1) VH: EVQLVESGGGLVQPGGSLRLSCAASGFTFSNYGVTWVRQAPGKGLEWVSMIWADGSTHYASSVKGRFTISRDNSKNTLYLQMNSLRAEDTAVYYCAREWQHGPVAYWGQGTLVTVSSASTKGPEVQLVESGGGLVQPGGSLRLSCAASGFSLTNNNVNWVRQAPGKGLEWVGGVWAGGATDYNSALKSRFTISRDNSKNTAYLQMNSLRAEDTAVYYCARDGGYSSSTLYAMDAWGQGTLVTVSS VL: DIQMTQSPSSLSASVGDRVTITCRASQLVSSAVAWYQQKPGKAPKLLIYWASARHTGVPSRFSGSGSGTDFTLTISSLQPEDFATYYCQQHYKTPFTFGQGTKLEIKRTVAAPDIQMTQSPSSLSASVGDRVTITCRASEDIYNALAWYQQKPGKAPKLLIYNTDTLHTGVPSRFSGSGSGTDYTLTISSLQPEDFATYFCQHYFHYPRTFGQGTKVEIKR | – | N-Terminal VD huTNFα Neutralization Assay IC50 [1]: 0.008 nM; C-Terminal VD NGF Neutralization Assay IC50 (Recombinant Human β-NGF): 6.85 nM
DVD3047 (bispecific antibody, IgG1) VH: EVQLVESGGGLVQPGGSLRLSCAASGFSLTNNNVNWVRQAPGKGLEWVGGVWAGGATDYNSALKSRFTISRDNSKNTAYLQMNSLRAEDTAVYYCARDGGYSSSTLYAMDAWGQGTLVTVSSASTKGPSVFPLAPEVQLVQSGAEVKKPGASVKVSCKASGYTFNNYGIIWVRQAPGQGLEWMGWINTYTGKPTYAQKFQGRVTMTTDTSTSTAYMELSSLRSEDTAVYYCARKLFNTVAVTDNAMDYWGQGTTVTVSS VL: DIQMTQSPSSLSASVGDRVTITCRASEDIYNALAWYQQKPGKAPKLLIYNTDTLHTGVPSRFSGSGSGTDYTLTISSLQPEDFATYFCQHYFHYPRTFGQGTKVEIKRTVAAPDIQMTQSPSSLSASVGDRVTITCRASQDIENYLNWYQQKPGKAPKLLIYYTSRLQSGVPSRFSGSGSGTDFTLTISSLQPEDFATYFCQQGNTQPPTFGQGTKLEIKR | – | N-Terminal VD NGF Neutralization Assay IC50 (Recombinant Human β-NGF): > 10 nM
DVD3113 (bispecific antibody) heavy: not shown light: DIQMTQSPSSLSASVGDRVTITCRASQDIENYLNWYQQKPGKAPKLLIYYTSRLQSGVPSRFSGSGSGTDFTLTISSLQPEDFATYFCQQGNTQPPTFGQGTKLEIKRGGSGGGGSGDVVMTQSPLSLPVTLGQPASISCRSSQSLVHSHGNTYLHWYQQRPGQSPRLLIYTVSNRFSGVPDRFSGSGSGTDFTLKISRVEAEDVGVYYCSQSTHVPYTFGGGTKVEIKRTVAAPSVFIFPPSDEQLKSGTASVVCLLNNFYPREAKVQWKVDNALQSGNSQESVTEQDSKDSTYSLSSTLTLSKADYEKHKVYACEVTHQGLSSPVTKSFNRGEC | 0.065 nM | –
DVD3117 (bispecific antibody, human IgG1, kappa) heavy: not shown light: DIQMTQSPSSLSASVGDRVTITCRASQDIENYLNWYQQKPGKAPKLLIYYTSRLQSGVPSRFSGSGSGTDFTLTISSLQPEDFATYFCQQGNTQPPTFGQGTKLEIKRTVAAPDIQMTQSPSSLSASVGDRVTITCRASQLVSSAVAWYQQKPGKAPKLLIYWASARHTGVPSRFSGSGSGTDFTLTISSLQPEDFATYYCQQHYKTPFTFGQGTKLEIKRTVAAPSVFIFPPSDEQLKSGTASVVCLLNNFYPREAKVQWKVDNALQSGNSQESVTEQDSKDSTYSLSSTLTLSKADYEKHKVYACEVTHQGLSSPVTKSFNRGEC | 0.015 nM | –
DVD2689 (bispecific antibody, human IgG1, kappa) heavy: not shown light: DIQMTQSPSSLSASVGDRVTISCRASQDIRNYLNWYQQKPGKAPKLLIFYTSKLHSGVPSRFSGSGSGTDYTLTISSLQPEDIATYYCQQGLTPPLTFGGGTKVEIKRTVAAPDIQMTQSPSSLSASVGDRVTITCRASQLVSSAVAWYQQKPGKAPKLLIYWASARHTGVPSRFSGSGSGTDFTLTISSLQPEDFATYYCQQHYKTPFTFGQGTKLEIKRTVAAPSVFIFPPSDEQLKSGTASVVCLLNNFYPREAKVQWKVDNALQSGNSQESVTEQDSKDSTYSLSSTLTLSKADYEKHKVYACEVTHQGLSSPVTKSFNRGEC | 0.147 nM | –
DVD2688 (bispecific antibody, human IgG1, kappa) heavy: not shown light: DIQMTQSPSSLSASVGDRVTISCRASQDIRNYLNWYQQKPGKAPKLLIFYTSKLHSGVPSRFSGSGSGTDYTLTISSLQPEDIATYYCQQGLTPPLTFGGGTKVEIKRGGSGGGGSGDIQMTQSPSSLSASVGDRVTITCRASQLVSSAVAWYQQKPGKAPKLLIYWASARHTGVPSRFSGSGSGTDFTLTISSLQPEDFATYYCQQHYKTPFTFGQGTKLEIKRTVAAPSVFIFPPSDEQLKSGTASVVCLLNNFYPREAKVQWKVDNALQSGNSQESVTEQDSKDSTYSLSSTLTLSKADYEKHKVYACEVTHQGLSSPVTKSFNRGEC | 0.094 nM | –
DVD3121 (bispecific antibody, human IgG1, kappa) heavy: not shown light: DVVMTQSPLSLPVTLGQPASISCRSSQSLVHSHGNTYLHWYQQRPGQSPRLLIYTVSNRFSGVPDRFSGSGSGTDFTLKISRVEAEDVGVYYCSQSTHVPYTFGGGTKVEIKRTVAAPSVFIFPPDIQMTQSPSSLSASVGDRVTITCRASQDIENYLNWYQQKPGKAPKLLIYYTSRLQSGVPSRFSGSGSGTDFTLTISSLQPEDFATYFCQQGNTQPPTFGQGTKLEIKRTVAAPSVFIFPPSDEQLKSGTASVVCLLNNFYPREAKVQWKVDNALQSGNSQESVTEQDSKDSTYSLSSTLTLSKADYEKHKVYACEVTHQGLSSPVTKSFNRGEC | 0.013 nM | –
DVD3118 (bispecific antibody, human IgG1, kappa) heavy: not shown light: DVVMTQSPLSLPVTLGQPASISCRSSQSLVHSHGNTYLHWYQQRPGQSPRLLIYTVSNRFSGVPDRFSGSGSGTDFTLKISRVEAEDVGVYYCSQSTHVPYTFGGGTKVEIKRGGSGGGGSGDIQMTQSPSSLSASVGDRVTITCRASQDIENYLNWYQQKPGKAPKLLIYYTSRLQSGVPSRFSGSGSGTDFTLTISSLQPEDFATYFCQQGNTQPPTFGQGTKLEIKRTVAAPSVFIFPPSDEQLKSGTASVVCLLNNFYPREAKVQWKVDNALQSGNSQESVTEQDSKDSTYSLSSTLTLSKADYEKHKVYACEVTHQGLSSPVTKSFNRGEC | 0.013 nM | –
DVD3114 (bispecific antibody) heavy: not shown light: DIQMTQSPSSLSASVGDRVTITCRASQDIENYLNWYQQKPGKAPKLLIYYTSRLQSGVPSRFSGSGSGTDFTLTISSLQPEDFATYFCQQGNTQPPTFGQGTKLEIKRTVAAPDVVMTQSPLSLPVTLGQPASISCRSSQSLVHSHGNTYLHWYQQRPGQSPRLLIYTVSNRFSGVPDRFSGSGSGTDFTLKISRVEAEDVGVYYCSQSTHVPYTFGGGTKVEIKRTVAAPSVFIFPPSDEQLKSGTASVVCLLNNFYPREAKVQWKVDNALQSGNSQESVTEQDSKDSTYSLSSTLTLSKADYEKHKVYACEVTHQGLSSPVTKSFNRGEC | 0.781 nM | –
DVD3158 (bispecific antibody, human IgG1, kappa) heavy: not shown light: DIQMTQSPSSLSASVGDRVTITCRASQGIRNYLNWYQQKPGKAPKLLIYYASNLEVGVPSRFSGSGSGTDYTLTISSLQPEDFATYYCQQDNRFPYTFGGGTKVEIKRGGSGGGGSGDIQMTQSPSSLSASVGDRVTITCKASQLVSSAVAWYQQKPGKAPKLLIYWASTLHTGVPSRFSGSGSGTDFTLTISSLQPEDFATYYCQQHYRTPFTFGQGTKLEIKRTVAAPSVFIFPPSDEQLKSGTASVVCLLNNFYPREAKVQWKVDNALQSGNSQESVTEQDSKDSTYSLSSTLTLSKADYEKHKVYACEVTHQGLSSPVTKSFNRGEC | 0.137 nM | –
DVD3159 (bispecific antibody, human IgG1, kappa) heavy: not shown light: DIQMTQSPSSLSASVGDRVTITCRASQGIRNYLNWYQQKPGKAPKLLIYYASNLEVGVPSRFSGSGSGTDYTLTISSLQPEDFATYYCQQDNRFPYTFGGGTKVEIKRTVAAPDIQMTQSPSSLSASVGDRVTITCKASQLVSSAVAWYQQKPGKAPKLLIYWASTLHTGVPSRFSGSGSGTDFTLTISSLQPEDFATYYCQQHYRTPFTFGQGTKLEIKRTVAAPSVFIFPPSDEQLKSGTASVVCLLNNFYPREAKVQWKVDNALQSGNSQESVTEQDSKDSTYSLSSTLTLSKADYEKHKVYACEVTHQGLSSPVTKSFNRGEC | 0.087 nM | –
